Measurements published in patent US10450368 (DUKE UNIVERSITY, dated 2019).

B1: CH557 (antibody, V domains shown)
VH: QVRLAQYGGGVKRLGATMTLSCVASGYTFNDYYIHWVRQAPGQGFELLGYIDPANGRPDYAGALRERLSFYRDKSMETLYMDLRSLRYDDTAMYYCVRNVGTAGSLLHYDHWGSGSPVIVSS
VL: EIVLTQSPATLSASPGERVTLTCRASRSVRNNVAWYQHKGGQSPRLLIYDASTRAAGVPARFSGSASGTEFTLAISNLESEDFTVYFCLQYNNWWTFGQGTRVDIK
notes: also called CH235.12; CH557_4A/293i
B2: CH241 (antibody, V domains shown)
VH: QVQLVQSGAAVKKPGASVRVSCKASGYTFTSSHIHWVRQAPGQGPEWMGMIDPSVGRPTTAGKFQGRVTMTRDRYTSTAYMDLSSLRSEDTAVYYCARSVETTGSLLYFDYWGQGTLITVSS
VL: EIVLTQSPATLSVSPGERATLSCRASQSVRSNIAWYQQKPGQAPRLLIHGASTRATGIPGRFSGSGSGPEFTLAISSVQSEDFAVYYCQQYNDWWTFGQGTKVEIK

How the values were obtained:
Centromere B [1] = target: T1, Centromere B (UniProt P07199 1-599); assay: AtheNA, Ab 6.25 ug/ml
T1 construct: also called Cent B
T1 sequence: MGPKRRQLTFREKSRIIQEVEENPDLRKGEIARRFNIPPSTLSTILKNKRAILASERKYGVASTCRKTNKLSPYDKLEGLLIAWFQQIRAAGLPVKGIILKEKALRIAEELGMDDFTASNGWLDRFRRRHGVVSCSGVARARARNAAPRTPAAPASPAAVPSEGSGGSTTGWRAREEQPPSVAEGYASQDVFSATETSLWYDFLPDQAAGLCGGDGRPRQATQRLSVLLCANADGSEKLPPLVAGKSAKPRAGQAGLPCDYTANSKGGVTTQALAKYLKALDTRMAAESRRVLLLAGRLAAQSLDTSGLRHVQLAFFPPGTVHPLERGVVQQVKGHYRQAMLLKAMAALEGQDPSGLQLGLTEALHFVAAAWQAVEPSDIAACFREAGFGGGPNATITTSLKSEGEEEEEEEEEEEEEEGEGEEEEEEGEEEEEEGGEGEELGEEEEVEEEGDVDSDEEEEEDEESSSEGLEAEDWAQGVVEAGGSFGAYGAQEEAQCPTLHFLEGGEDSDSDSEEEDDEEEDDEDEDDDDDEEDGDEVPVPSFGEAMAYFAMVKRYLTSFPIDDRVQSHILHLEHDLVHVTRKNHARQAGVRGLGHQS

Jo-1 [2] = target: T2, Jo-1 (UniProt P12081 1-509); assay: AtheNA, Ab 6.25 ug/ml
T2 sequence: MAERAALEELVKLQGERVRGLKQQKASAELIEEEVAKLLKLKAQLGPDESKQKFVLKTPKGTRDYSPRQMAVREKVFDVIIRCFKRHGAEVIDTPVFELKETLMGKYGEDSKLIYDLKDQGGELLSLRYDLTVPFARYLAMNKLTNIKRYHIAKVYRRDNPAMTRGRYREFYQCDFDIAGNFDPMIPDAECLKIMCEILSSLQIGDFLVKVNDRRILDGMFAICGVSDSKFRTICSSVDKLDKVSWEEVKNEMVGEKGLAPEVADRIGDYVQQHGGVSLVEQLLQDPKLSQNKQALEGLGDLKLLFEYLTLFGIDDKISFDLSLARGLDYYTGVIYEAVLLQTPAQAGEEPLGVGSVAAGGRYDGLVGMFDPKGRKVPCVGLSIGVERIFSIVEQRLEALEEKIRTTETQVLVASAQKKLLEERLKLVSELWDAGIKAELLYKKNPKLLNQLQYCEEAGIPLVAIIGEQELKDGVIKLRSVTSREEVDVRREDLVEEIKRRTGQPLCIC

RNP (ribonucleoprotein) = target: T3, RNP (ribonucleoprotein); assay: AtheNA, Ab 12.5 ug/ml
T3 construct: Protein-RNA complex

Sm (Smith antigen) = target: T4, Sm (Smith antigen); assay: AtheNA, Ab 12.5 ug/ml
T4 construct: Protein complex

Histones = target: T5, Histones; assay: AtheNA, Ab 12.5 ug/ml
T5 construct: Mixture of proteins

Centromere B [3] = target: T1, Centromere B; assay: AtheNA, Ab 12.5 ug/ml
SSA = target: T6, SSA; assay: AtheNA, Ab 12.5 ug/ml
T6 construct: also called SSA (Ro)

Jo-1 [4] = target: T2, Jo-1; assay: AtheNA, Ab 12.5 ug/ml
SSB = target: T7, SSB (UniProt P05455 1-408); assay: AtheNA, Ab 12.5 ug/ml
T7 sequence: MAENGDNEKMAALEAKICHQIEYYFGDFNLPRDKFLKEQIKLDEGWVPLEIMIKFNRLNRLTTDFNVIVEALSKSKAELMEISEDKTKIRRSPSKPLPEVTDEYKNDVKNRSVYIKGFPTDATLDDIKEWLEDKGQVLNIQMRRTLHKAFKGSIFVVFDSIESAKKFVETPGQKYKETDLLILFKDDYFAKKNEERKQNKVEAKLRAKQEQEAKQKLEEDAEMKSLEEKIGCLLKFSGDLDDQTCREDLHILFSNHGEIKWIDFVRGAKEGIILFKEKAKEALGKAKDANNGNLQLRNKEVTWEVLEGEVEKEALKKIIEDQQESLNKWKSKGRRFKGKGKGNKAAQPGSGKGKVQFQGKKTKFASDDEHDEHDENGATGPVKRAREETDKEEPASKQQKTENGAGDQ

Scl-70 = target: T8, Scl-70 (UniProt P11387 1-765); assay: AtheNA, Ab 12.5 ug/ml
T8 sequence: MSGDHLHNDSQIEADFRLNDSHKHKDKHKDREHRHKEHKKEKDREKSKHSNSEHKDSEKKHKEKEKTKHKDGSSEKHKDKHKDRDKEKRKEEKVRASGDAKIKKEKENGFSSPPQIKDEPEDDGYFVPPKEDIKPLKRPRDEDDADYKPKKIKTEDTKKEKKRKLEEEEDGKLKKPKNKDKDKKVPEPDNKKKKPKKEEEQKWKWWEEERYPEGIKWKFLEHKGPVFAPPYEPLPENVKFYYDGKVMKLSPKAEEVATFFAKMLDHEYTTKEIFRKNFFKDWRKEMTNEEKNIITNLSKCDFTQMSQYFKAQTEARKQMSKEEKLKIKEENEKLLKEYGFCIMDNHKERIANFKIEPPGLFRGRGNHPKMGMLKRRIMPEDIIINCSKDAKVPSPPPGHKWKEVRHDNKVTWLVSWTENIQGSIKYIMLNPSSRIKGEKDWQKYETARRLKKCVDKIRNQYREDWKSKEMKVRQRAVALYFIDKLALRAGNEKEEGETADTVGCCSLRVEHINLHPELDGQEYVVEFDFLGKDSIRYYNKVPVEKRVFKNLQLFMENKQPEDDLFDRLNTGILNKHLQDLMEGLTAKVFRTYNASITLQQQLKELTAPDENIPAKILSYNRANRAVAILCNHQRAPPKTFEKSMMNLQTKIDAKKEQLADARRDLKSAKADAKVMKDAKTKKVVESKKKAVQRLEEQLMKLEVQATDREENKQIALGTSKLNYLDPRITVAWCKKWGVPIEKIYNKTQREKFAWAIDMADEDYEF

[5] = target: T9, HIV-1 CH505 transmitted/founder gp120 Env (HIV-1); assay: SPR, antibody captured on anti-human Ig Fc, gp120 injected
T9 construct: domain: gp120; also called CH505.TF gp120; CH505 TF gp120 Env

| Binder | AtheNA signal (Centromere B [1]) | AtheNA signal (Jo-1 [2]) | AtheNA signal (RNP (ribonucleoprotein)) | AtheNA signal (Sm (Smith antigen)) | AtheNA signal (Histones) | AtheNA signal (Centromere B [3]) | AtheNA signal (SSA) | AtheNA signal (Jo-1 [4]) | AtheNA signal (SSB) | AtheNA signal (Scl-70) | Kd [5] [pM] | koff [5] [s⁻¹] |
| --- | --- | --- | --- | --- | --- | --- | --- | --- | --- | --- | --- | --- |
| B1 | 11 relative luminescence units | 5 relative luminescence units | 3 relative luminescence units | 6 relative luminescence units | 6 relative luminescence units | 16 relative luminescence units | 3 relative luminescence units | 5 relative luminescence units | 9 relative luminescence units | 3 relative luminescence units |  |  |
| B2 |  |  |  |  |  |  |  |  |  |  | 700 | 0.00033 |
